Reference: PMC3328597

Biological target: T1, dSLBP P231G RPD (Drosophila, UniProt Q9VAN6 173-276, P231G)
T1 sequence: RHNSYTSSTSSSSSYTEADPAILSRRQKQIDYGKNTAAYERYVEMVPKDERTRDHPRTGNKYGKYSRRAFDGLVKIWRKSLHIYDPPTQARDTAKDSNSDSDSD
Test: NMR

B1: SL28-CG (structured_RNA)
RNA: GGCCAAAGGCCCUUUUCAGGGCCACCCA
binding result: binds
